Test results: patent publication US20110059093A1

Target: T1, Tau fragment Ser-Ile-Asp-Met-Val-Asp-Ser-Pro-Gln-Leu-Ala-Thr-Leu-Ala-Asp (SEQ ID NO:10) (human)
T1 sequence (peptide, biotinylated): SIDMVDSPQLATLAD
Assay: ELISA, biotinylated peptide on streptavidin plate, absorbance 405 nm-492 nm

B1: Mab2.10.3 (anti-Tau pS422 antibody) (antibody, IgG1, V domains shown)
VH: EVQLVESGGDLVRPGGSLKLSCAASGFTFRTYGMSWVRQTADKRLEWVATISSGGTYTYYADNVRERFTISRDNARDTLYLQMSRLESDDTAMYYCTRRYGYDGGGSFDVWGAGTRVTVSS
VL: EIVMTQAAPSVPVTPGESASISCRSNKSLLHSNGNTYLCWFLQRPGQSPQLLIYRMSTLAPGVPDRFSGSGSGTAFTLRISRLEAEDVGVYYCMQHIEYPLTFGAGTKLELK
**Q.** For B1, which Max O.D. Tau fragment binding is on record?
**A.** 30 mE
